Experimental data published in patent US20240218057A1 (ROCKEFELLER UNIVERSITY, published 2024).

Biological target: T1, SARS-COV-2 RBD (SARS-COV-2, UniProt P0DTC2 319-539)
T1 construct: also called WT RBD
Test: ELISA, RBD coated

Binder	EC50 [ng/mL]
C971 (antibody, V domains shown, IgG; V domains only) VH: EVQLVESGGGLVKPGGSLRLSCAASGFTFNNAWMTWVRQAPGKGLEWVGRIKSKTDGGTTDYGTPAKGRFTISRDDSKNTLYLQMKSLRTEDTAVYYCTTVDVQGIWELLENDAFDIWGQGTMVTVSS VL: EIVLTQSPGTLSLSPGERATLSCRATQAISSTYLAWYQQKPGQAPRLLIYGAFSRAPGIPDRFSGSGSETDFTLTISRLEPEDFAVYYCQQSDRSPFTFGPGTKVDIK	2.21
C972 (antibody, V domains shown, IgG; V domains only) VH: EVQLVESGGGLVQPGGSLRLSCAASEFIVSRNYMSWVRQAPGKGLEWVSLIYPGGSTYYPDSVKGRFTISRDNSKNTLYLQMNSLRGEDTAVYYCARDLGDSRLDYWGQGALVTVSS VL: DIQLTQSPSFLSASVGDRVTITCRASQGISSYLAWYQQDPGKAPKLLIYAASTLQSGVPSRFSGSGSGTEFTLTISSLQPEDFATYYCQQLDSYPPGYSFGQGTKLEIK	2.18
C964 (antibody, V domains shown, IgG; V domains only) VH: EVQLVESGGGLVQPGRSLRLSCAASGFTFDDYGMHWVRQAPGKGLEWVSGISWNSGSIAYAEFVKGRFTISRDNAKNSLYLQMNSLRTEDTALYYCAKAVPTSCYVFCALDIWGQGTMVTVSS VL: DIQMTQSPSSLSASVGDRVTITCRASQGISNYLAWYQQSPGKVPKLLIYAASTLQSGVPSRFSGSGSGTDFTLTISSLQPEDVATYYCQKYNSGPALTFGGGTKVEIK	2.79
C962 (antibody, V domains shown, IgG; V domains only) VH: EVQLVESGGGLVQPGGSLRLSCTASRLTVSSNYMNWVRQAPGKGLEWVSVIYAGGSTFYADSVKDRFTISRDNSMNTLYLQMNSLRVEDTAVYYCARLGGYRYGMDVWGQGTTVTV VL: DIQMTQSPSSLSASVGDRVTITCQASQDISNYLNWYQQSPGKAPKLLIYDASKLETGVPSRFSGSGSGTDFTFTISSLQPEDIATYYCLQYDNLPYSFGQGTKLEI	1.74
C965 (antibody, V domains shown, IgG; V domains only) VH: EVQLVESGGGLVKPGRSLRLSCSASGFTFGDYAMTWFRQAPGKGLQWVGFIRSKPFGGTTQYAASVKGRFTISRDDSNNVAYLQMNSLKTEDTGVYYCTRLRQVQGVPGYYFDQWGQGALVTVSS VL: EIVMTQSPATLSVSPGERATLSCRASQSVSSNLAWYQQKPGQAPRLLIYGASIRATGIPARFSGSGSGTEFTLTISSLQSEDFVVYYCQEYDNWFAFGGGTKVEIK	1.69
C975 (antibody, V domains shown, IgG; V domains only) VH: EVQLVESGGDLTQPGGSLRLSCAASGFTFSSYDMHWVRQATGKGLEWVSGIGTSGDTYYADSVKGRFTISRENAKNSLFLQMNNLRAGDTATYYCARTEYAWGSYRSYWYFDLWGRGTLVTVSS VL: DIQMTQSPSSLSASVGDRVTITCRTSQTISTYLNWYQQKPGKAPKVLIYAASSLQSGVPSRFSGSGSGTDFTLTISSLQPEDFATYFCQQSYSAPPWTFGPGTKVEIK	2.88
C967 (antibody, V domains shown, IgG; V domains only) VH: QVQLVESGGGVVQPGRSLRLSCAASGFTFRIYAMHWVRQAPGKGLEWVAIIWNDGSKQYYADSMKGRFTISRDNSKNTLYLQMNSLRDEDTALYYCAREGVALAGNGVDGFDIWGQGTMVTVSS VL: DIQMTQSPSSLSASVGDRVTITCRASQTISTFLNWYRQIPGKAPKLLIYAASSLQSGVPSRFSGSGSGTDFTLTISSLQPEDFATYYCQQTYSTPYTFGRGTKLEIK	3.58
C958 (antibody, V domains shown, IgG; V domains only) VH: EVQLVQSGAEVKKPGDSLKISCKGSGYSFISHWIAWVRQKPGKGLEWMGIIHPGDSDTRYSPSIQGQVTISADRFITTAYLQWSSLQASDTAMYYCARRGSSWEIDHWGQGTLVTVSS VL: QSVLTQPPSASGTPGQRVTISCSGSSSNIGSYTVNWYHQVPGTAPKVLIYGNTQRPSGVPDRFSGSKSGTSASLAISGLQSEDEGDYYCAAWDDSLDGWMFGGGTTLTVL	4.02
C969 (antibody, V domains shown, IgG; V domains only) VH: QVQLQESGPGLVKPSETLSLTCTVSGGSISSYYWSWIRQPPGKGLEWIGYIYYSGSTNYNPSLKSRVTISVDTSKNQFSLKLSSVTAADTAVYYCARLLSTEWLFNWFDPWGQGTLVTVSS VL: not shown	3.49
C990 (antibody, V domains shown, IgG; V domains only) VH: EVQLVESGGGLVRPGGSLRLSCAASGFTVGSNFMSWVRQAPGKGLEWVSLIYSGGGTHYAESVKGRFTISRDKSKNTLYLQMNSLRAEDTAVYYCANQGYYYYMDVWGKGTTVTVS VL: QSALTQPASVSGSPGQSITISCTGTSSDVGAYNYVSWHQHHPGKAPKLIIYDVSNRPSGVSNRFSGSKSGNTASLTISGLQAEDEADYYCTSYTNTTTPWVFGGGTKLTVL	1.92
C987 (antibody, V domains shown, IgG; V domains only) VH: QVQLQESGPGLVKPSETLSLTCNVSGDIINKYYWSWIRQSPGKGLEWIGYIYYSGTTYYNPSLKSRVTMSVGTSKQQFSLRLTSVTAADTAVYYCARMLSTEWSFNWFDPWGPGTLVTVSS VL: SYELTQPPSVSVSPGQAASITCSGDKLGDKFACWYQQKPGQSPVLVIYQNDKRPTGIPERFSGSNSGNTATLTISGTQAMDEADYFCQAWDSTSASVFGTGTKVTVL	3.11
C992 (antibody, V domains shown, IgG; V domains only) VH: QVQLQESGPGLVKPSQTLSLTCTVSGGSISNGGYFWTWIRQHPVKGLEWIGYIYYSGSPHYNPSLKSRLSISLDTFKNQFSLNLSSVTAADTAVYYCARGDTFGRGYYFDFWGQGTLVTVSS VL: SYELTQPPSVSVAPGQTARITCGGNNIGTNSMHWYQQKPGQAPVLVVFDDSDRPSGIPERFSGSNSGNTATLTISRVEAGDEADYHCQVWDRSSDRPWVFGGGTKLTVL	3.24
C966 (antibody, V domains shown, IgG; V domains only) VH: EVQLVESGGGLIQPGGSLRLSCAASGFTFSSYDMHWVRQVTGKGLEWVSAIGTAGDRYYLDSVKGRFTISRENAKNSLHLQMNNLRVGDTAVYYCARASGVLTTHFDSWGRGTLVTVSS VL: DIQMTQSPSSLSASVGDRVTITCRASQSIGRHLSWHQQKLGKAPKLLIYSASSLQSGVPSRFSGSGSGTDFTLTISSLQPEDFATYYCQQSYETPPWTFGQGTKVEIK	1.97
C968 (antibody, V domains shown, IgG; V domains only) VH: QVQLVESGGGVVQPGRSLRLSCAASGFTFRIYAMHWVRQAPGKGLEWVAIIWNDGNKKDYVDSVKGRFTISRDNSRNTVYLQMNSLRVDEDTAVYYCAREGVAVGGNGVDGFDMWGQGTMVTVSS VL: DIQMTQSPSSLSSSVGDRVTITCRASQSIGIYLNWYQQKPGKVPNLLIYAASTLQTGAPSRFSGSGSGTDFILSISSLQPEDFATYYCQQTYSVPYTFGQGTKLEIK	3.19
C989 (antibody, V domains shown, IgG; V domains only) VH: QVQLVQSGPEVKKPGSSVKVSCKASGGNFNSYTITWVRQAPGHGLEWMGRIIPTLGVANYALNFQDRITITADKSTSTAYMDLSSLRSEDTAVYYCARETGYSGFLAVAYMDVWGNGTTVTVSS VL: QSVLTQPPSVSGAPGQRVTISCTGSSSNVGAGYDVHWYQQLPGTAPKLLIYRNNNRPSGVPDRFSGSKSGSSASLDITGLQAEDEADYYCQSYDSSLSDSVFGGGTKLTV	4.12
C963 (antibody, V domains shown, IgG; V domains only) VH: QVQLVQSGAEVKKPGSSVRVSCKASGGTFSSFTITWVRQAPGQGLEWMGRIIPNLNIPNYAQRFQGRITITAEKSTSTAYLELSSLRSEDTAVYYCARGVGYSGSGSNWYFDLWGRGTLVTVSS VL: QSVLTQPPSVSGAPGQRVTISCTGSSSNIGAGYDVHWYQQLPGTAPKLLISGHINRPSGVPDRFSGSTSGTSASLAITGLQAEDEADYYCQSYDSSLSDSVFGGGTKLTV	2.96
